Test results: the Human Domainome abundance scans (Beltran et al. 2025)

B1: RNA-binding E3 ubiquitin-protein ligase MEX3C, residues 325 to 391; numbered along this chain, Q5U5Q3 (parent)
chain: GQTTVQVRVPYRVVGLVVGPKGATIKRIQQQTHTYIVTPSRDKEPVFEVTGMPENVDRAREEIEMHI

Variants of: B1
Experiment: abundance fitness (aPCA) (normalised: wild type 0, dead -1); higher = more abundant; growth selection in yeast, the domain comes from the species named
Settings: Homo sapiens

Abundance fitness: each site, then its substitutions
E44: Q -0.305; A -0.177; V -0.472; R -0.719; P -0.374; L -0.582; M -0.687; T -0.798; N -0.222; S -0.459; W -0.695; C -0.834; F -0.906; K -0.697; G -0.492
P39: A -0.497; T -0.409; R -0.276; G -0.467; N -0.234; H -0.402; K -0.149; C -0.221; W -0.58; V -0.476; M -0.502; I -0.57; Y -0.328; E -0.424; Q -0.477; F -0.286; D -0.383
T38: H -0.587; C 0.005; D -0.275; S -0.01; K -0.333; W -0.384; A -0.015; V -0.174; R -0.403; M -0.271; N -0.347; I -0.177; G 0.005; F -0.516; Y 0.017; P -0.046; L -0.268
V46: L -0.332; E -0.767; C -0.645; K -0.321; M -0.361; I -0.093; A -0.676; H -0.579; F -0.503; G -0.7; P -0.66; N -0.62
S40: L -0.133; T -0.081; M -0.016; E -0.029; N 0.032; H -0.352; G 0.03; V -0.229; Q -0.033; W -0.215; Y -0.137; C -0.332; P 0.08; D 0.138; A 0.021; F -0.349; I -0.34; K -0.072
D42: M -0.128; T -0.245; K -0.139; V -0.465; S -0.332; F -0.198; I -0.342; W -0.335; H -0.191; Y -0.181; N -0.071; C -0.425; R -0.408; Q -0.122; L -0.263; P -1.01; A -0.292; G 0.099
P45: R -0.564; Q -0.458; H -0.502; G -0.434; D -0.677; F -0.417; S -0.387; M -0.467; I -0.622; T -0.493; A -0.422; C -0.47; V -0.919; E -0.375; L -0.479; N -0.821; K -0.42
K43: V -0.423; W -0.435; S 0.12; Y -0.46; E -0.191; F -0.431; I -0.583; Q -0.059; T -0.05; L -0.579; N -0.093; D 0.131; C -0.1; A 0.058; P -0.565; H 0.012; R -0.133; M 0.125; G 0.108
V37: P -0.724; M -0.095; Q -0.094; S -0.027; W -0.811; H -0.582; R 0.138; Y -0.629; E -0.422; K 0.216; N -0.426; F -1; L -0.315; T 0.136; D -0.377; I -0.089
R41: G -0.154; I -0.15; H -0.109; P 0.071; N -0.058; S -0.047; V -0.088; C -0.067; E -0.021; A 0.017; D 0.048; F -0.343; Y -0.212; W -0.245; L -0.21; M -0.168; K 0.019; T -0.021
